# Patent US20080311034A1 (published 2008)
# T1: recombinant human FcγRIIb (R&D Systems #1875-CD-050) (human, UniProt P31994 46-217, limits assumed)
# T1 construct: Bought; also called CD32b; recombinant, soluble, human FcγRIIb
# T1 sequence (looked up): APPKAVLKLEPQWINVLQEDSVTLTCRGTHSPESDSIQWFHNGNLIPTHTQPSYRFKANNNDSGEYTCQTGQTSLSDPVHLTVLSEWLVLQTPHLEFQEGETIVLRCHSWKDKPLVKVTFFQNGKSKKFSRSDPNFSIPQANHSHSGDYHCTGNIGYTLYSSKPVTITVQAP
# T2: recombinant polyhistidine tagged mouse FcγRII (R&D Systems) (mouse, UniProt P08101 40-217, limits assumed)
# T2 construct: Bought; also called FcRII
# T2 sequence (looked up): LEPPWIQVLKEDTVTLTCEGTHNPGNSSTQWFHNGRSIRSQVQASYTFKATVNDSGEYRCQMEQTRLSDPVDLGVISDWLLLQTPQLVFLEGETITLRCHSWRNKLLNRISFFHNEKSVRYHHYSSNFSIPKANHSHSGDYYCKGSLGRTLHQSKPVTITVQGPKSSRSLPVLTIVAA
# T3: recombinant polyhistidine tagged mouse FcγRI (R&D Systems) (mouse, UniProt P26151 25-297)
# T3 construct: Bought; also called murine FcγRI
# T3 sequence (looked up): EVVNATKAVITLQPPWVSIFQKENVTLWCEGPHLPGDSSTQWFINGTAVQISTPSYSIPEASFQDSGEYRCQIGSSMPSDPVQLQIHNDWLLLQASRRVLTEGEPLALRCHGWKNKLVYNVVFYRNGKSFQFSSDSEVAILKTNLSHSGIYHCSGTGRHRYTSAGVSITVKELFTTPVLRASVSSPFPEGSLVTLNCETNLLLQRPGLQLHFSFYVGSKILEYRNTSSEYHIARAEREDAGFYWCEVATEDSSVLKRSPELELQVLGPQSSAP
# Experiments:
# [1] = biological target: T1, recombinant human FcγRIIb (R&D Systems …); experiment: AlphaScreen, FcγRIIb on nickel acceptor beads
# Protocol: FcγRIIa (CD32a) AlphaScreen—Nickel acceptor beads (Perkin Elmer #6760619C) were diluted 1:50 in assay buffer (PBS, pH 7.4, 4 mg/ml BSA, 0.01% Tween-20), and 27.5 μl were added to each well of a Nunc V-bottom polypropylene plate (VWR # 62409-108) (Powers G., Notebook 9006, pp. 169-175, 182-185). A 2.0 μg/ml solution of recombinant human His-tagged FcγRIIa (R&D Systems #1330-CD-050) was prepared in assay buffer and 27.5 μl added to each well of a separate Nunc V bottom polypropylene plate. Titrations of test Abs were prepared in the Nunc V bottom polypropylene plate starting at 30 μg/ml. A 2 μg/ml solution of biotinylated goat F(ab′)₂ anti-human IgG F(ab′)₂ (Jackson Immunoresearch #109-066-097) was prepared in assay buffer and 27.5 μl added to each well of another Nunc V bottom polypropylene plate. A 1:50 dilution of streptavidin donor beads (PerkinElmer # 6760002) was prepared in assay buffer and 27.5 μl added to each well of another Nunc V bottom polypropylene plate. A volume of 5 μl of each reagent was added to the corresponding quadrants of a low-volume, non-binding white 384-well plate (Corning # 3673) in the following order: acceptor beads, FcγRIIa, test Ab, biotinylated anti-human IgG F(ab′)₂, and streptavidin donor beads. The plates were incubated for 30 minutes with shaking and the O.D.s determined using an Envision plate reader.
# FcγRIIb (CD32b) AlphaScreen—The assay was performed as described above for FcγRIIa except that FcγRIIa was replaced with FcγRIIb (R&D Systems #1875-CD-050).
# [2] = biological target: T2, recombinant polyhistidine tagged mouse …; experiment: ELISA, His-tagged mouse receptor captured on copper-coated plate
# Protocol: (§1) Commercially-available recombinant polyhistidine tagged mouse FcγRI, FcγRII, FcγRIII, and FcγRIV (R&D Systems) were diluted to 1 μg/ml in PBS and 100 μl/well was captured onto copper-coated plates (Pierce) overnight at 4° C. Plates were washed three times with wash buffer (0.15M NaCl, 0.02% Tween 20). Non-specific binding was blocked using 200 μl/well SuperBlock (Pierce) for 15 minutes at room temperature. Plates were washed three times as above. […] Plates were washed three times as above to remove unbound mAb. CNTO 860 variants that bound to plated receptors were detected using 100 μl/well HRP-labeled goat F(ab′)₂ anti-human IgG F(ab′)₂ (Jackson ImmunoResearch) diluted 1:5,000 in PBS incubated at room temperature for 1 hour. Plates were washed five times using wash buffer as above, and developed using 100 μl/well TMB Stable Stop substrate (Fitzgerald Industries) stopped with 0.5M HCl. Absorbance was detected at 450 nm.
# (§2) All binding assays were in an ELISA format, with recombinant soluble receptor captured on coated EIA plates.
# [3] = biological target: T4, recombinant human His-tagged FcγRIIIa (extracellular domain made at Centocor) (human, UniProt P08637 17-208); experiment: ELISA, His-tagged FcγRIIIa captured on HisGrab plate
# T4 construct: extracellular domain; also called CD16a; recombinant, soluble, human FcγRIIIa
# T4 sequence (P08637 17-208): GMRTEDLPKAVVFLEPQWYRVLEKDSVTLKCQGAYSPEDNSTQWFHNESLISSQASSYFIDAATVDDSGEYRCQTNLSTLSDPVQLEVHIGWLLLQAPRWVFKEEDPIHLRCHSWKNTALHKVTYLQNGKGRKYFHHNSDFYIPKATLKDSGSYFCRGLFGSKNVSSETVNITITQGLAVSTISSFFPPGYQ
# Protocol: FcγRIIIa (CD16a) ELISA—A human FcγRIIIa binding assay was done in ELISA format similar to the assay for FcγRI above. 50 μl of a 2 μg/ml solution of recombinant human His-tagged FcγRIIIa (extracellular domain made at Centocor) in ELISA buffer (PBS, 4 mg/ml BSA, 0.01% Tween-20) was added to each well of HisGrab 96 well plates (Pierce #15142) (Powers G., Notebook 10378, 19-23). The plate was incubated for 3 hours at room temp. The plates were blocked with 200 μl of Starting Block (Pierce #15142) for 30 min, and then washed 3× with 300 μl of wash buffer (PBS, 0.01% Tween-20) on a plate washer. Serial dilutions of the CNTO 860 test samples were made in Starting Block buffer and 50 μl per well of each titration were added in duplicate to the FcγRIIIa-coated plates. The plates were incubated for 1 hour. The plates were washed 3× with 300 μl of wash buffer on a plate washer. 50 μl of a 1:10,000 dilution of HRP-labeled goat F(ab′)2 anti-human IgG F(ab′)2 (Jackson Immunoresearch # 109-036-097) in Starting Block buffer was added to each well. The plates were incubated for 30 minutes. The plates were washed 3× with 300 μl of wash buffer on the plate washer. 50 μl per well TMB substrate (RDI #RDI-TMBSU-1L) was added to each well and developed for 3-5 minutes. The reaction was stopped by adding 100 μl […] sulfuric acid. The plates were read at OD450 on an Envision plate reader. Antibody concentration vs OD450 values were graphed for each CNTO 860 variant and the antibody concentration needed to achieve an OD450 reading of 0.14 established by interpolation within each data curve.
# [4] = biological target: T3, recombinant polyhistidine tagged mouse …; experiment: ELISA, His-tagged mouse receptor captured on copper-coated plate
# Protocol: as §1, §2
Binder,"concentration (ng/ml) required for an O.D. value of 200,000 [1]",ECOD1 (concentration required for an O.D. value of 1.0) [2],concentration (ng/ml) required for an O.D. value of 0.14 [3],ECOD1 (concentration required for an O.D. value of 1.0) [4]
"CHO-CNTO 860 WT (antibody, human IgG1, kappa, N-linked glycan at heavy chain Asn297 (CHO-type, highly fucosylated); not carried by the letters, Anti-human tissue factor human IgG1/kappa; transiently expressed in CHO cells (plasmids p4145/p4146; CHO Abs typically 95% fucosylated), purified by protein A; also called CNTO 860 WT from CHO cells; WT (CHO cell-derived); copies: 2 + 2) heavy: not shown light: DIQMTQSPSSLSASVGDRVTITCKASQDIRKYLNWYQQKPGKAPKLLIYYATSLADGVPSRFSGSGSGTDYTFTISSLQPEDIATYYCLQHGESPYTFGQGTKLEITRTVAAPSVFIFPPSDEQLKSGTASVVCLLNNFYPREAKVQWKVDNALQSGNSQESVTEQDSKDSTYSLSSTLTLSKADYEKHKVYACEVTHQGLSSPVTKSFNRGEC",165 ng/mL,4000 ng/mL,4500 ng/mL,
"CHO-CNTO 860 I332E (antibody, N-linked glycan at Asn297 of the heavy chain (CHO-type, highly fucosylated); not carried by the letters, IgG1/kappa Fc variant; transiently expressed in CHO cells (p4157/p4146); also called I332E (CHO cell-derived); I332E from CHO cells; copies: 2 + 2) heavy: not shown light: DIQMTQSPSSLSASVGDRVTITCKASQDIRKYLNWYQQKPGKAPKLLIYYATSLADGVPSRFSGSGSGTDYTFTISSLQPEDIATYYCLQHGESPYTFGQGTKLEITRTVAAPSVFIFPPSDEQLKSGTASVVCLLNNFYPREAKVQWKVDNALQSGNSQESVTEQDSKDSTYSLSSTLTLSKADYEKHKVYACEVTHQGLSSPVTKSFNRGEC",105 ng/mL,1500 ng/mL,750 ng/mL,4000 ng/mL
"CHO-CNTO 860 A330Y (antibody, human IgG1, kappa, N-linked glycan at Asn297 of the heavy chain (CHO-type, highly fucosylated); not carried by the letters, IgG1/kappa Fc variant; transiently expressed in CHO cells (p4183/p4146); EU numbering; also called A330Y (CHO cell-derived); copies: 2 + 2) heavy: not shown light: DIQMTQSPSSLSASVGDRVTITCKASQDIRKYLNWYQQKPGKAPKLLIYYATSLADGVPSRFSGSGSGTDYTFTISSLQPEDIATYYCLQHGESPYTFGQGTKLEITRTVAAPSVFIFPPSDEQLKSGTASVVCLLNNFYPREAKVQWKVDNALQSGNSQESVTEQDSKDSTYSLSSTLTLSKADYEKHKVYACEVTHQGLSSPVTKSFNRGEC",280 ng/mL,2700 ng/mL,3300 ng/mL,5000 ng/mL
"YB2/0-CNTO 860 A330I (antibody, IgG1, N-linked glycan at heavy chain Asn297 (YB2/0-type, low fucose); not carried by the letters, IgG1/kappa Fc variant; stably expressed in YB2/0 cells (p4177/p2402); EU numbering; also called A330I (YB2/0 cell-derived); A330I mutant expressed in YB2/0 cells; copies: 2 + 2) heavy: not shown light: DIQMTQSPSSLSASVGDRVTITCKASQDIRKYLNWYQQKPGKAPKLLIYYATSLADGVPSRFSGSGSGTDYTFTISSLQPEDIATYYCLQHGESPYTFGQGTKLEITRTVAAPSVFIFPPSDEQLKSGTASVVCLLNNFYPREAKVQWKVDNALQSGNSQESVTEQDSKDSTYSLSSTLTLSKADYEKHKVYACEVTHQGLSSPVTKSFNRGEC",37000 ng/mL,7000 ng/mL,1200 ng/mL,25000 ng/mL
"CHO-CNTO 860 I332E/S239D (antibody, human IgG1, kappa, Heavy chain N297 carries the CHO-type N-linked glycan (about 95% fucosylated); not carried by the letters., IgG1/kappa Fc variant; transiently expressed in CHO cells (p4186/p4146); EU numbering; also called S239D/I332E (CHO cell-derived); copies: 2 + 2) heavy: not shown light: DIQMTQSPSSLSASVGDRVTITCKASQDIRKYLNWYQQKPGKAPKLLIYYATSLADGVPSRFSGSGSGTDYTFTISSLQPEDIATYYCLQHGESPYTFGQGTKLEITRTVAAPSVFIFPPSDEQLKSGTASVVCLLNNFYPREAKVQWKVDNALQSGNSQESVTEQDSKDSTYSLSSTLTLSKADYEKHKVYACEVTHQGLSSPVTKSFNRGEC",27 ng/mL,900 ng/mL,600 ng/mL,1700 ng/mL
"CHO-CNTO 860 I332E/A330I (antibody, human IgG1, kappa, Heavy chain N297 carries the CHO-type N-linked glycan (about 95% fucosylated); not carried by the letters., IgG1/kappa Fc variant; transiently expressed in CHO cells (p4185/p4146); EU numbering; also called A330I/I332E (CHO cell-derived); A330I/I332E variant from CHO cells; copies: 2 + 2) heavy: not shown light: DIQMTQSPSSLSASVGDRVTITCKASQDIRKYLNWYQQKPGKAPKLLIYYATSLADGVPSRFSGSGSGTDYTFTISSLQPEDIATYYCLQHGESPYTFGQGTKLEITRTVAAPSVFIFPPSDEQLKSGTASVVCLLNNFYPREAKVQWKVDNALQSGNSQESVTEQDSKDSTYSLSSTLTLSKADYEKHKVYACEVTHQGLSSPVTKSFNRGEC",4500 ng/mL,600 ng/mL,520 ng/mL,3000 ng/mL
"CHO-CNTO 860 A330I (antibody, IgG1, N-linked glycan at Asn297 of the heavy chain (CHO-type, highly fucosylated); not carried by the letters, IgG1/kappa Fc variant; EU numbering; also called A330I (CHO cell-derived); copies: 2 + 2) heavy: not shown light: DIQMTQSPSSLSASVGDRVTITCKASQDIRKYLNWYQQKPGKAPKLLIYYATSLADGVPSRFSGSGSGTDYTFTISSLQPEDIATYYCLQHGESPYTFGQGTKLEITRTVAAPSVFIFPPSDEQLKSGTASVVCLLNNFYPREAKVQWKVDNALQSGNSQESVTEQDSKDSTYSLSSTLTLSKADYEKHKVYACEVTHQGLSSPVTKSFNRGEC",75000 ng/mL,8000 ng/mL,19000 ng/mL,90000 ng/mL
"YB2/0-CNTO 860 A330I/I332E (antibody, human IgG1, kappa, N-linked glycan at heavy chain Asn297 (YB2/0-type, low fucose); not carried by the letters, IgG1/kappa Fc variant; stably expressed in YB2/0 cells (p4178/p2402); EU numbering; also called A330I/I332E (YB2/0 cell-derived); A330I/I332E from YB2/0 cells; copies: 2 + 2) heavy: not shown light: DIQMTQSPSSLSASVGDRVTITCKASQDIRKYLNWYQQKPGKAPKLLIYYATSLADGVPSRFSGSGSGTDYTFTISSLQPEDIATYYCLQHGESPYTFGQGTKLEITRTVAAPSVFIFPPSDEQLKSGTASVVCLLNNFYPREAKVQWKVDNALQSGNSQESVTEQDSKDSTYSLSSTLTLSKADYEKHKVYACEVTHQGLSSPVTKSFNRGEC",10500 ng/mL,3000 ng/mL,240 ng/mL,10000 ng/mL
